Data on two molecules can be found in patent publication US20240287163A1 (Chugai, published 2024).

Experiment [1] deals with T1, recombinant human C1r2s2 tetramer (human, UniProt P09871 16-688; P00736 18-705).
T1 construct: C1s and C1r co-expressed in HEK293 and purified from the supernatant as tetramer; also called hC1r2s2
T1 chain 1: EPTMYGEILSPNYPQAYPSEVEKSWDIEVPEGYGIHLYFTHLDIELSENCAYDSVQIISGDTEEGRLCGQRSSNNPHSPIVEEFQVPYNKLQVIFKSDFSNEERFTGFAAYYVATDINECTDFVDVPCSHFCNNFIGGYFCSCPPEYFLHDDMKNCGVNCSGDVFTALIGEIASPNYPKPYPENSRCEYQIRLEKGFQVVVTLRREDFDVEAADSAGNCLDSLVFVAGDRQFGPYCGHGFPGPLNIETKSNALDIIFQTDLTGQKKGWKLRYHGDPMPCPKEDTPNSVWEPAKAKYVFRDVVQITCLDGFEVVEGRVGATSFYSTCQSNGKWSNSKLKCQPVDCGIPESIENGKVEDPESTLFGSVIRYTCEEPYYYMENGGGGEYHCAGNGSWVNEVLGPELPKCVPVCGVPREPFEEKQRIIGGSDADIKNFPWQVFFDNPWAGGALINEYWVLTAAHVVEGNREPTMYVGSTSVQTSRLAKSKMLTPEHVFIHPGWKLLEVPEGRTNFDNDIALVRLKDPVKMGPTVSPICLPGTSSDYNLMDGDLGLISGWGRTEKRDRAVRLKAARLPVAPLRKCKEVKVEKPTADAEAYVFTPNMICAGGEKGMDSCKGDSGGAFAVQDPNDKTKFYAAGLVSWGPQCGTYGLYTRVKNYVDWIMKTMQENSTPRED
T1 chain 2: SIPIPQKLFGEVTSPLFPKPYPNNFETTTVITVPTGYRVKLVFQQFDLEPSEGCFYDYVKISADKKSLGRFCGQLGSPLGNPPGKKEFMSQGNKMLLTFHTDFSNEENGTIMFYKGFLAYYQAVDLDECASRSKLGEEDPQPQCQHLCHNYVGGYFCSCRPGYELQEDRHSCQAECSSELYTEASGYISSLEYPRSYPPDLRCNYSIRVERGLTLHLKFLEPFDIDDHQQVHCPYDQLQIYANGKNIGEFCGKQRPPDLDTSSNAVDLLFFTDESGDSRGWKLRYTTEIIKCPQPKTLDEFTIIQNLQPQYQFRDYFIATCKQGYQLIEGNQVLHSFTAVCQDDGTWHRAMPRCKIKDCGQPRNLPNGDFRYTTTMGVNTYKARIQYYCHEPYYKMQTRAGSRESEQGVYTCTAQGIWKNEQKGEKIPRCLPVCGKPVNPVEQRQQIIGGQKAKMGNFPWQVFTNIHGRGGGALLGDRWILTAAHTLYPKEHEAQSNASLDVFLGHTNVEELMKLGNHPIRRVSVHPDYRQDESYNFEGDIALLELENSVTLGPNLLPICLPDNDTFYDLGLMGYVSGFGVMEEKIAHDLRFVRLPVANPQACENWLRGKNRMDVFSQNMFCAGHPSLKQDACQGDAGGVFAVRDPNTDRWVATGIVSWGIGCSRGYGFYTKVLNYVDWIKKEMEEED
The experiment is described as follows: SPR (Biacore T200), 37 C, pH 6.0; hC1r2s2 captured by IPN009, antibody as analyte; pH 6.0, 37 C; hC1r2s2 captured by IPN009 on the chip, antibody as analyte. Here is the method: (§1) The binding property of each sample at pH7.4 and pH6.0 was determined at 37° C. using BIACORE® T200 instrument (Cytiva). […] 20 mM ACES, 150 mM NaCl, 1.2 mM CaCl₂, 1 mg/mL BSA (not containing IgG), 1 mg/mL CMD, 0.05% Tween® 20, 0.005 w/v % NaN₃, pH7.4 or pH6.0 buffer was used as the running buffer. […] The antibody solution was added thereto at 30 μL/min for 120 seconds, the running buffer was then added at 30 μL/min for 180 seconds, and the dissociation constant (KD) of each antibody for hC1r2s2 and cyC1r2s2 was calculated. […] The sensor surface was regenerated every cycle, using 3 M MgCl2 (prepared in-house). The KD value was calculated using BIACORE® T200 evaluation software version 2.0 (Cytiva). The binding strengths under each pH condition were compared by dividing the KD value at pH6.0 with the KD value at pH7.4.
For orientation: Surface plasmon resonance follows binding to a sensor surface in real time, without labels.

Experiment [2] concerns the target T1, recombinant human C1r2s2 tetramer. The experiment is described as follows: SPR (Biacore T200), 37 C, pH 7.4; hC1r2s2 captured by IPN009, antibody as analyte; pH 7.4, 37 C; hC1r2s2 captured by IPN009 on the chip, antibody as analyte. Here is the method:
as §1

Experiment [3] has as its target T2, recombinant cynomolgus C1r2s2 tetramer (cynomolgus monkey, limits assumed).
T2 construct: also called cyC1r2s2; monkey C1r2s2
T2 chain 1: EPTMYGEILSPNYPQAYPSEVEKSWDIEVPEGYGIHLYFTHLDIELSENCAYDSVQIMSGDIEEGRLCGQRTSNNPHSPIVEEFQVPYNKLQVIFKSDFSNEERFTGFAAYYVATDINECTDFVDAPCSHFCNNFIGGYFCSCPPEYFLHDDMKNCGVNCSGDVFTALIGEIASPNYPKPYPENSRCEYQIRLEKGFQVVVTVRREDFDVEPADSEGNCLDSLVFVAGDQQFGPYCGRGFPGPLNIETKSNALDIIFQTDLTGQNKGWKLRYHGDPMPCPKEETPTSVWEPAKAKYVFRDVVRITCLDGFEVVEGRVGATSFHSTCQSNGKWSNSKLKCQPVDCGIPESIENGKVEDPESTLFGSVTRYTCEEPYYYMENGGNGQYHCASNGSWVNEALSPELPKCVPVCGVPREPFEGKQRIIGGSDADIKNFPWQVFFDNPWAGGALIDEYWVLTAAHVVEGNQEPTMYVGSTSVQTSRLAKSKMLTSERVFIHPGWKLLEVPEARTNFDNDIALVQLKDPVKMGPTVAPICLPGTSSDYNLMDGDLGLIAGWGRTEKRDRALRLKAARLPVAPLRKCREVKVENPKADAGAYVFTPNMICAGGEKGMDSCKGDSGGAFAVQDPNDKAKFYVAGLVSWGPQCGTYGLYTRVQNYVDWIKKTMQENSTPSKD
T2 chain 2: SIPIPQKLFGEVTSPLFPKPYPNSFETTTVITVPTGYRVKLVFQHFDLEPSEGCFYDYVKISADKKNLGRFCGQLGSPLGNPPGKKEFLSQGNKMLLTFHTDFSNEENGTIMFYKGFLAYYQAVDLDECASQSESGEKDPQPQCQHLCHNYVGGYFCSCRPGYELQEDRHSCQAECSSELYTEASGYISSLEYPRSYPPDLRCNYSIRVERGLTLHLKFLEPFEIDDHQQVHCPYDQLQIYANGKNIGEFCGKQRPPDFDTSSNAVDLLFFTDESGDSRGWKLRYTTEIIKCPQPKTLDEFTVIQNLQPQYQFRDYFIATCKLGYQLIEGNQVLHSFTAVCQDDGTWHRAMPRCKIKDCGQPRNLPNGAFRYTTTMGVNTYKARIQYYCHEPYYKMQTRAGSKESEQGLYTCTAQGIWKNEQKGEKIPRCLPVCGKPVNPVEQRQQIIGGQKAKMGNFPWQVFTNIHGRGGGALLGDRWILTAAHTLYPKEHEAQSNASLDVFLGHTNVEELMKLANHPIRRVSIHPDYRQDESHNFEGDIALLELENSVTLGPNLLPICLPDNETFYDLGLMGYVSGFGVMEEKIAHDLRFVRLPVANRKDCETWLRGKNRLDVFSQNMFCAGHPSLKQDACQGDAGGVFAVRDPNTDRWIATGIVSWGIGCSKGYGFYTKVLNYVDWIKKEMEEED
Kind of experiment: SPR (Biacore T200), 37 C; ratio of KD at pH 6.0 to KD at pH 7.4. The method, then:
as §1

In experiment [4] the target is T1, recombinant human C1r2s2 tetramer. Described as above. Here is the method: as §1
Experiment [5] has as its target T2, recombinant cynomolgus C1r2s2 tetramer. The experiment is described as follows: SPR (Biacore T200), 37 C, pH 7.4; cyC1r2s2 captured by IPN009, antibody as analyte. The method, then: as §1
Experiment [6] shares this target. Kind of experiment: SPR (Biacore T200), 37 C, pH 6.0; cyC1r2s2 captured by IPN009, antibody as analyte. Here is the method: as §1
The target is the same in experiment [7]. The experiment is described as follows: SPR (Biacore T200), IPN009 immobilised on CM5 chip as capture antibody. The method, then:
as §1

Experiment [8] concerns the target T1, recombinant human C1r2s2 tetramer. The experiment is described as above. Here is the method: as §1

B1: COS0637pHv3-TT91R (antibody, human IgG1, V domains shown)
VH: QVQLVESGGGVVQPGRSLRLSCAASGFTFSAYAMNWIRQPPGKGLEWIGLIYGSGHEFYASWAEERVTISVDTSKNQFSLKLSSVTAADTAVYYCARGRSKNYVSGFHLWGQGTLVTVSS
VL: DIQMTQSPSSLSASVGDRVTITCQASQILHDKKNLAWYQQKPGQPPKLLIYQASQLESGVPSRFSGSGSGTDFTLTISSLQPEDFATYYCHGEFSYESADLNQFGQGTKVEIKR
notes: Modified human IgG1 constant region TT91R, light chain constant region SK1
For orientation: Kd means the concentration at which binding is half-saturated. Regarding B1, the Kd in experiment [1] worked out at 10.3 nM; in experiment [2], 0.388 nM; in experiment [5] it was 0.502 nM; in experiment [6], 22 nM. Further, the results for the “KD (pH 6.0)/KD (pH 7.4)” value in experiment [3] and in experiment [4] were 43.8 and 26.5, respectively.

B2: IPN009VH2VK3-SG1148 (antibody, human IgG1, kappa, V domains shown)
VH: EVMLVESGGGLVKPGGSLRLSCAASGFTFSNYAMSWVRQAPGKGLEWVATISSGGSHTYYLDSVKGRFTISRDNSKDTLYLQMNSLRAEDTALYYCARLFTGYAMDYWGQGTLVTVSS
VL: QIVLTQSPATLSLSPGERATLSCTASSSVSSSYLHWYQQKPGKAPKLWIYSTSNLASGVPSRFSGSGSGTDYTLTISSLQPEDFATYYCHQYYRLPPITFGQGTKLEIKR
notes: Anti-C1s / anti-human C1r2s2 antibody immobilised on the chip as capture reagent
In the case of B2, the binding result in experiment [7] and in experiment [8] was “binds” each time.
